Laboratory results as given in the supplement of paper PMC9170038.

Key:
MS2 coat protein [1] = test: apparent KD of MS2 coat protein, switch ON state; designed switch direction (-1 OFF switch, 1 ON switch): -1; higher = weaker reporter binding; settings: FMN input: 0 or 200 uM; Eterna round: R93 (includes R88 designs)
Outline: (§1)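 On-chip transcription from Illumina sequencing clusters produced the designed RNA switches. These were titrated with SNAP-549-labelled MS2 coat protein (twofold steps, 0.7 or 1.5 nM to 3 µM) in 100 mM Tris-HCl pH 7.5, 80 mM KCl, 4 mM MgCl2, with or without constant ligand. The apparent KD given is the per-design median of normalised cluster binding-curve fits.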

MS2 coat protein [2] = test: apparent KD of MS2 coat protein, switch OFF state (with FMN for OFF switches, without FMN for ON switches); designed switch direction (-1 OFF switch, 1 ON switch): -1; higher = weaker reporter binding; settings: FMN input: 0 or 200 uM; Eterna round: R93 (includes R88 designs)
Outline: as §1

| Sequence | apparent KD of MS2 coat protein (MS2 coat protein [1]) [nM] | apparent KD of MS2 coat protein (MS2 coat protein [2]) [nM] |
| --- | --- | --- |
| AUAGUACAUGAGGAUCACCCAUGUCAGGAUAUUGGAUAUGACAAAAAAAAAAAGUUAACGAGAAGGGACUAUAA [EX1 Malc#15] | 31.2 | 36.6 |
| AUCAACCUAGGAUAUACAUGAGGAUCACCCAUGUACAGAUACAACAAGGGAAACACACGUAGAAGGAGGAAGAU [JR_Exc003_Sub1205] | 24.4 | 52.1 |
| AUCAUGUAAGGAUAUACAAGAAAAGAAAAGAAAGAAAAGAAGUAGAAGGUACAUGAGGAUCACCCAUGUAAGAA [EteRNA is fun!] | 61 | 31.5 |
| AUCAUGUAAGGAUAUAUAAGAAAAGAAAAGAAAGAAAAGAAAUAGAAGGUACAUGAGGAUCACCCAUGUAAGAA [EteRNA is fun!] | 30.8 | 15.6 |
| AUCAUGUAAGGAUAUGACUACAUAAAAAAAAAAAAAUGUAGUCAGAAGGUACAUGAGGAUCACCCAUGUACAAA [Mod of Brourd] | 27.6 | 29.4 |
| AUCUCGUCAGGAUAUGACUACAUAAAAAAAAAAAAAUGUAGUCAGAAGGGACAUGAGGAUCACCCAUGUACCAA [HSL_Exclusion 4 64% 3] | 21.9 | 22.8 |
| AUCUUGUCAGGAUAUGACUACAUAAAAAAAAAAAAAUGUAGUCAGAAGGGACAUGAGGAUCACCCAUGUACUAA [hsl_exclusion4] | 41.9 | 62.4 |
| AUGGUAGGAGGAUAUACAUAGAUACAGAUACAUGUAGACGUACAUGAGGAUCACCCAUGUAGAAGGCCUAUAAA [Mat - Same state - Mayanna Mod - D150] | 97.9 | 82.3 |
| CACGUACAUGAGGAUCACCCAUGUUAGGAUAUGCCGGGUAAGAGAAAACUAAAAACCCGUAGAAGGGACGAAAC [Bilbo Confounded 13 - Jieux - Exclusion 1] | 23.3 | 28.6 |
| CAGUACUGAGGAUAUACAUGAGGAUCACCCAUGUGUAAAAGCUAGGAAACUAGCAAAUGUAGAAGGCAGUACUG [Ex3: 816] | 13.8 | 36.5 |
| CAGUACUGAGGAUAUACAUGAGGAUCACCCAUGUGUUCCAGCUAGGAAACUAGCAAAAGUAGAAGGCAGUACUG [Ex3: 828] | 24.6 | 343 |
| CAGUACUGAGGAUAUACAUGAGGAUCACCCAUGUGUUCCAGCUAGGAAACUAGCACAUGUAGAAGGCAGUACUG [Ex3: 826] | 187 | 16.8 |
| CCAGGACAUGAGGAUCACCCAUGUGAGGAUAUCUGUAUUCAAUCCUCGGAUUGAAUACAGAGAAGGCACAUGGA [Ex1: 659] | 38.6 | 26.8 |
| CCCAUGUCAGGAUAUCAGUAGUAAAAAAAAAAAAUUACUACUGAGAAGGGACAUGAGGAUCACCCAUGUCCAAA [EX4 316: Super Stable 16] | 61.7 | 38.7 |
| CCCAUGUCAGGAUAUCAGUAGUAAAAAAAAAAAAUUACUACUGAGAAGGGACAUGAGGAUCACCCAUGUUCAAA [EX4 317: Super Stable 17] | 33.4 | 28.2 |
| CCCUCACAUGAGGAUCACCCAUGUGAGGAUAUGCAUAAAAAAAAAAAAAAAAAAAAAUGCAGAAGGCACAUGAA [jn_irvington] | 13 | 11.1 |
| CCCUCACAUGAGGAUCACCCAUGUUAGGAUAUCUACCAGGAGCCUAAAAUGGCCCAACGGAGAAGGAACGUGCA [Arbire] | 19.2 | 16.9 |
